In patent US20230374144A1 (STAIDSON BEIJING BIOPHARMACEUTICAL, published 2023):
Substitutions are numbered along the chain they refer to. Like-named read-outs stand apart in the source and are kept apart here.

B1: C27-7-33 (antibody, human IgG4, V domains shown)
VH: EVQLLESGGGLVQPGGSLRLSCAASGFTLSSYAMHWVRQAPGKGLEYVSGISPSGVSTYYANSVKGRFTISRDNPKNTLFLQMSSLRAEDTAVYYCVRVKVKYRGGMDVWGQGTTVTVSS
VL: EIVLTQSPGTLSLSPGERATLSCRASQGISSAYLAWYQQKPGQAPRLLIYGTSRRATGIPDRFSGSGSGTDFTLTISRLEPEDFAVYYCQLYGATSVTFGQGTKLEIK
B2: C27-47-56 (antibody, human IgG4, V domains shown)
VH: B1 VH with S54T, V56T, V101G, K102A
VL: B1 VL with G28S, I29V, T95S

Assays:
[1] = target: T1, IL-4R with mouse Fc-tag (human, UniProt P24394 26-232); test: competitive ELISA: antibody dilutions with 0.5 µg/mL IL-4R-mouse Fc on plate-captured biotinylated IL-4, anti-mouse-Fc-HRP
T1 construct: not shown: mouse Fc-tag
Description: Competitive ELISA: The second assay was designed to identify the anti-IL-4Rα antibodies that were capable of inhibiting the binding of hIL-4 to hIL-4Rα, as measured by competitive ELISA. Briefly, a 96-well plate was coated with 100 μL, 2.5 μg/mL SA (Streptavidin) solution, and incubated overnight at 4° C., followed by washed with TBST. Biotinylated IL-4 with the final concentration of 2 μg/mL was added into the plate and incubated at 37° C. for 1 hour. Then the plate was washed with TBST. The anti-IL-4Rα antibody samples were first diluted to 10 μg/mL, and 1004, of the sample was added to the first row of wells. 10 μg/mL anti-IL-4Rα antibody samples were then serially diluted at a 1:2 ratio and added to each of the remaining rows of wells. 504 of 0.5 μg/mL IL-4R with mouse Fc-tag was added to each well. After incubating for 1 hour at 37° C., the wells were washed with TBST 6 times. 100 µL of anti-mouse-Fc-HRP (1:10,000) was then added to each well and incubated for 1 hour at 37° C. The wells were washed with TBST 6 times before adding 1004/well of TMB, and incubated for 5-10 minutes at 37° C. 2M H₂SO₄ was used to stop the reaction. The ELISA results (OD450) were read, and the binding curves were generated by GraphPad Prism 5 software (GraphPad Software). Reference antibody Dupilumab (Regeneron, anti-IL-4Rα antibody) and AMG317 (Amgen, anti-IL-4Rα antibody) were used as positive controls, Human IgG4, kappa Isotype Control (Cat #HG4K, Sino Biological Inc.) was used as negative control, abbreviated as Human IgG4 in FIG. 1.

[2] = target: T2, human IL-4Rα on cells (human, UniProt P24394 26-825); test: cell-based or functional assay
[3] = target: T2, human IL-4Rα on cells; test: cell-based or functional assay; remark: listed apart in the source
[4] = target: T2, human IL-4Rα on cells; test: cell-based or functional assay; remark: listed apart in the source
[5] = target: T2, human IL-4Rα on cells; test: cell-based or functional assay; remark: listed apart in the source
[6] = target: T2, human IL-4Rα on cells; test: cell-based or functional assay; remark: listed apart in the source
[7] = target: T2, human IL-4Rα on cells; test: cell-based or functional assay; remark: listed apart in the source
[8] = target: T2, human IL-4Rα on cells; test: cell-based or functional assay; remark: listed apart in the source
[9] = target: T2, human IL-4Rα on cells; test: cell-based or functional assay; remark: listed apart in the source
[10] = target: T3, recombinant human IL-4Rα (extracellular domain, tagged) (human, UniProt P24394 26-232); test: SPR, Biacore T200; antibody (human IgG4) on the sensor chip, human IL-4Rα at 0.625-12.5 nM
T3 construct: it is written second here only for want of that; also called hIL-4Rα; not shown: His-tag or other conventionally used tag
Description: The binding affinity of the anti-IL-4Rα antibodies (reformatted as human IgG4) to human IL-4Rα was characterized using Biacore T200 (GE). The full-length anti-IL-4Rα antibodies were stabilized on sensor chip CMS. The affinities for human IL-4Rα at various concentrations were measured. […] Using the SPR technology, the association and dissociation rates were measured, and binding affinity was determined.

[11] = target: T2, human IL-4Rα on cells; test: cell-based or functional assay; remark: listed apart in the source

Molecule | IC50 [1] | IC50(nM), neutralization of hIL-13 (4 ng/ml), HEK-Blue IL-4/IL-13 STAT6-SEAP reporter cells [2] | IC50(nM), inhibition of hIL-13 (20 ng/mL) dependent CD23 upregulation on B cells in human PBMCs [3] | IC50(nM), inhibition of IL-4 (2 ng/mL) dependent TF-1 cell proliferation [4] | IC50(nM), inhibition of hIL-4 (1 ng/mL) dependent CD23 upregulation on B cells in human PBMCs [5] | IC50(nM), neutralization of hIL-4 (1.2 ng/ml), HEK-Blue IL-4/IL-13 STAT6-SEAP reporter cells [6] | IC50(nM), inhibition of TARC release in human PBMCs induced by hIL-4 (32 ng/mL) [7] | IC50(nM), neutralization of hIL-13 (4 ng/ml), HEK-Blue IL-4/IL-13 STAT6-SEAP reporter cells [8] | IC50(nM), inhibition of TARC release in human PBMCs induced by hIL-13 (200 ng/mL) [9] | Kd [10] | koff [10] | kon [10] | IC50(nM), inhibition of IL-13 (10 ng/mL) dependent TF-1 cell proliferation [11]
AMG317 (antibody) | 0.0891 µg/mL | 0.649 nM | – | – | – | – | – | – | – | – | – | – | –
B1 | 0.0582 µg/mL | – | 0.179 nM | 0.0311 nM | 0.0303 nM | 0.0541 nM | 0.916 nM | 0.0343 nM | 0.0576 nM | 1.01 nM | 0.000134 s⁻¹ | 134000 M⁻¹ s⁻¹ | 0.0902 nM
B2 | 0.0651 µg/mL | – | 0.698 nM | 0.0509 nM | 0.0814 nM | 0.103 nM | 1.2 nM | 0.0966 nM | 0.0913 nM | 1.82 nM | 0.000195 s⁻¹ | 107000 M⁻¹ s⁻¹ | 0.0849 nM
